Reference: patent publication US20210324108A1 (Hoffmann-La Roche, published 2021)

Key:
[1] = target: T1, human 4-1BB on Jurkat-hu4-1BB-NFκB-luc2 reporter cells (human, UniProt Q07011 24-255); experiment: cell-based or functional assay
[2] = target: T1, human 4-1BB on Jurkat-hu4-1BB-NFκB-luc2 …; experiment: cell-based or functional assay; remark: listed apart in the source

T1 sequence (Q07011 24-255 limits assumed): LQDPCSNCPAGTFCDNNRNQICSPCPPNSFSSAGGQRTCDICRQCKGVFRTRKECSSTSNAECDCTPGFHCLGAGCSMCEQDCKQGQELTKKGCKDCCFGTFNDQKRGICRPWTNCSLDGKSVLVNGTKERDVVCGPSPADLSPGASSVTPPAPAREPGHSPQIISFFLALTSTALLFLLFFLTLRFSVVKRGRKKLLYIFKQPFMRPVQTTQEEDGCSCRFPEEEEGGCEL

Binder	area under the curve (AUC) of NFκB-luciferase activation in Jurkat-hu4-1BB-NFκB-luc2 cells with NIH/3T3-huFAP clone 19 [1]	EC50 of NFκB-luciferase activation in Jurkat-hu4-1BB-NFκB-luc2 cells with NIH/3T3-huFAP clone 19 [2] [nM]
anti-4-1BB (20H4.9) huIgG1 P329GLALA antibody (antibody, V domains shown) VH: QVQLQQWGAGLLKPSETLSLTCAVYGGSFSGYYWSWIRQSPEKGLEWIGEINHGGYVTYNPSLESRVTISVDTSKNQFSLKLSSVTAADTAVYYCARDYGPGNYDWYFDLWGRGTLVTVSS VL: EIVLTQSPATLSLSPGERATLSCRASQSVSSYLAWYQQKPGQAPRLLIYDASNRATGIPARFSGSGSGTDFTLTISSLEPEDFAVYYCQQRSNWPPALTFGGGTKVEIK	15500	0.321
anti-4-1BB (20H4.9) huIgG4 (antibody, V domains shown) VH: QVQLQQWGAGLLKPSETLSLTCAVYGGSFSGYYWSWIRQSPEKGLEWIGEINHGGYVTYNPSLESRVTISVDTSKNQFSLKLSSVTAADTAVYYCARDYGPGNYDWYFDLWGRGTLVTVSS VL: EIVLTQSPATLSLSPGERATLSCRASQSVSSYLAWYQQKPGQAPRLLIYDASNRATGIPARFSGSGSGTDFTLTISSLEPEDFAVYYCQQRSNWPPALTFGGGTKVEIK	13000	0.701
